For orientation: Km means the concentration of substrate that gives half-maximal velocity. One may read the kcat as the number of substrate molecules converted per active site and unit of time at saturation.

Substrate in the data set: O=[N+]([O-])c1ccccc1O[C@@H]1O[C@H](CO)[C@H](O)[C@H](O)[C@H]1O
Put plainly: purified protein. In kind it is biochemical, Kluyveromyces lactis. The note with it: free enzyme, 37 °C, assay buffer 50 mM potassium phosphate, 1 mmol/L MgCl2, pH 6.5 (general activity assay), substrate range printed as 6.3-31.5 μmol/L, which conflicts with the mmol/L unit of Km.

B1: lactase (DSM Maxilact 5000) (Kluyveromyces lactis NRRL Y-1140) (protein)
chain: MSCLIPENLRNPKKVHENRLPTRAYYYDQDIFESLNGPWAFALFDAPLDAPDAKNLDWETAKKWSTISVPSHWELQEDWKYGKPIYTNVQYPIPIDIPNPPTVNPTGVYARTFELDSKSIESFEHRLRFEGVDNCYELYVNGQYVGFNKGSRNGAEFDIQKYVSEGENLVVVKVFKWSDSTYIEDQDQWWLSGIYRDVSLLKLPKKAHIEDVRVTTTFVDSQYQDAELSVKVDVQGSSYDHINFTLYEPEDGSKVYDASSLLNEENGNTTFSTKEFISFSTKKNEETAFKINVKAPEHWTAENPTLYKYQLDLIGSDGSVIQSIKHHVGFRQVELKDGNITVNGKDILFRGVNRHDHHPRFGRAVPLDFVVRDLILMKKFNINAVRNSHYPNHPKVYDLFDKLGFWVIDEADLETHGVQEPFNRHTNLEAEYPDTKNKLYDVNAHYLSDNPEYEVAYLDRASQLVLRDVNHPSIIIWSLGNEACYGRNHKAMYKLIKQLDPTRLVHYEGDLNALSADIFSFMYPTFEIMERWRKNHTDENGKFEKPLILCEYGHAMGNGPGSLKEYQELFYKEKFYQGGFIWEWANHGIEFEDVSTADGKLHKAYAYGGDFKEEVHDGVFIMDGLCNSEHNPTPGLVEYKKVIEPVHIKIAHGSVTITNKHDFITTDHLLFIDKDTGKTIDVPSLKPEESVTIPSDTTYVVAVLKDDAGVLKAGHEIAWGQAELPLKVPDFVTETAEKAAKINDGKRYVSVESSGLHFILDKLLGKIESLKVKGKEISSKFEGSSITFWRPPTNNDEPRDFKNWKKYNIDLMKQNIHGVSVEKGSNGSLAVVTVNSRISPVVFYYGFETVQKYTIFANKINLNTSMKLTGEYQPPDFPRVGYEFWLGDSYESFEWLGRGPGESYPDKKESQRFGLYDSKDVEEFVYDYPQENGNHTDTHFLNIKFEGAGKLSIFQKEKPFNFKISDEYGVDEAAHACDVKRYGRHYLRLDHAIHGVGSEACGPAVLDQYRLKAQDFNFEFDLAFE
notes: commercial enzyme preparation, free (not immobilised)
As for B1, the Km is 25.4 mM and the kcat was 1182.9 s⁻¹.

The record behind these values is paper PMC3709774, “Preparation of Novel Poly(hydroxyethyl methacrylate-coglycidyl methacrylate)-Grafted Core-Shell Magnetic Chitosan Microspheres and Immobilization of Lactase” (International Journal of Molecular Sciences, 2013).
